This is an account of results in US11485776B2, “Antibodies against infectious diseases” (priority 2015, dated 2022).

Entries after “also recorded” stand apart in the source; their conditions may differ.

One assay has as its target T1, mENO1 (Mus musculus, UniProt P17182).
T1 construct: His; made in house; host or cells: E. coli BL21 (by 'in the same way')
The assay can be described thus: Western blot on purified mouse ENO1 protein. It is filed as binding. The source says: (§1) Lane M contained protein markers.
(§2) The ImageQuant LAS4500 was used for ECL intensity detection.

Another assay addresses T2, hENO1 (Homo sapiens, UniProt P06733).
T2 construct: His; made in house; host or cells: E. coli BL21 (by 'in the same way')
The assay can be described thus: Western blot on purified human ENO1 protein. The class given is binding.
Description: as §1, §2
On the technique in general: In western blotting, separated proteins are transferred to a membrane and probed.

Assay [1] deals with C. albicans. The assay can be described thus: C. albicans hyphal formation. It is filed as cell-based. The settings on record: CaS1 scFv pre-incubated with 10^3 cfu, 5 days at 37° C. How it is done: (A) C. albicans were cultured in YPD medium overnight at 37° C. 10^8 cfu/ml of C. albicans was mixed with equal volume of 0.5 mg/ml anti-CaENO1 IgY, 0.5 mg/ml CaS1 scFv or 1×PBS, respectively, at room temperature for 1 hr. 1 ul of each mixture in 10× dilutions was spotted on YPD agar plate and incubated at 37° C. overnight. (B) 10^3 cfu of C. albicans was mixed with PBS (control), 10 or 100 µg/ml CaS1 scFv at room temperature for 1 hr. 1 ul of each mixture was spotted on YPD agar plate and incubated at 37° C. for 5 days. The hyphal formation was observed under the microscope.
To determine the effect of scFv antibodies on the cell growth and hyphal formation, anti-CaENO1 IgY (0.5 mg/ml) or CaS1 scFv (0.5 mg/ml) or PBS were pre-incubated with C. albicans (1×10^6 cfu) for 1 hr at 37° C. After incubation, 1 ul of each mixture in 10-fold dilutions was spotted on YPD agar plate and incubated at 37° C. overnight. 10^3 cfu of C. albicans was mixed with 0 (1×PBS control), 10 or 100 µg/ml CaS1 scFv at room temperature for 1 hr. Thereafter, 1 ul of each mixture was spotted on YPD agar plate and incubated at 37° C. for 5 days. […].
So we further investigated whether CaS1 scFv affects the hyphal formation. We pre-incubated CaS1 scFv with C. albicans and the colony morphology was examined. […]

Assay [2] addresses T3, binding of surface ENO1 of C. albicans to plasminogen (Candida albicans, UniProt P30575).
T3 construct: endogenous in cells; host or cells: C. albicans cells
The assay can be described thus: Fibrin matrix-gel degradation analysis with C. albicans cells. The settings on record: for Binding of CaENO1 to plasminogen: fibrin matrix-gel degradation analysis, C. albicans cells. It is filed as cell-based. Here is the method: The ability of CaS1 scFv to block the binding of CaENO1 with plasminogen was evaluated by fibrin matrix-gel degradation analysis. Various samples containing C. albicans only (1), C. albicans+1 ug of plasminogen (2) or C. albicans+10 ug of plasminogen (3) were spotted on the plate. Similar experiments were carried out except C. albicans were mixed first with 10 ug (4) or 100 ug (5) of CaS1 scFv, followed by the addition of 10 ug of plasminogen. C. albicans+CaS1 scFv without plasminogen (6) were spotted as a negative control.
The matrix gel was prepared for fibrinolysis activity detection^33. C. albicans (10^6 cells) were washed and incubated with or without CaS1scFv ([…]) at 37° C. for 1 hr. After incubation, cells were washed and incubated with plasminogen (10 μg) for 30 min. The mixtures were washed with PBS to remove free plasminogen. The resulting cell pellets were placed in a matrix gel that contained 1.25% low-melting-temperature agarose, thrombin (0.05 U/ml, Sigma) and fibrinogen (2 mg/ml, Sigma). The gel was incubated in a humidified chamber at 37° C. for 10-14 hrs until the appearance of clear spots indicated the presence of fibrinolysis activity.
It is well known that surface ENO1 act as a plasminogen receptor 32, binding to plasminogen will activate it to plasmin and leading to the degradation of the fibrinogen (extracellular matrix) containing in the gel. We performed matrix-gel studies to test the possible biological significance of CaENO1-plasminogen association and the effect of CaS1 scFv on this binding was observed.
The inhibition of the degradation of the fibrinogen in the gel is obvious.

In assay [3] the test system is C. albicans. The assay can be described thus: Mouse model of C. albicans infection (survival). The class given is in vivo, ICR mice. The following applies: for survival rate: ICR mice; for Protection against lethal challenge of C. albicans in mice: mouse, in vivo. How it is done: The mice were grouped and challenged with the mixture of 10^6 of C. albicans containing 10 ug and 100 ug CaS1 scFv, 100 ug anti-DA scFv (unrelated scFv control) or 1×PBS, respectively. The survival of mice was monitored at 1 day intervals for 10 days.
A total of 20 ICR female mice (purchased from National Laboratory Animal Center, Taiwan) weighing about 30 g were randomly grouped with 5 mice in each group. C. albicans were grown overnight and washed in normal saline. Four groups of mice were treated through the lateral tail vein with the following preparations: (i) 1×PBS alone; (ii) 1×10^6 cfu of C. albicans cells pre-incubated with 50 μg of CaS1; (iii) 1×10^6 cfu of C. albicans cells pre-incubated with 100 μg of CaS1; (iv) 1×10^6 cfu of C. albicans cells pre-incubated with anti-CaENO1 IgY. Mice were monitored for survival at 1 day intervals for 10 days. All treatments and handling of mice were carried out according to animal experimental protocols approved by the Institutional Animal Care and Use Committee of Taipei Medical University.
1×10^6 cells of C. albicans solutions were mixed with 100 μg of each of the anti-CaENO1 IgY, scFv CaS1 and control scFv and then injected into ICR mice (5 mice for each group).
We evaluated the survival rate of the CaS1 on animal model. Initially ICR mice were tail-vein injected with 1×10^6 cells of C. albicans with PBS alone or cells pre-incubated with CaS1 (10 and 100 μg) for one hour at 37° C. […] Anti-Deinagkistrodon acutus scFv (anti-DA) is an antibody to snake venom, which was used as an unrelated scFv control.

T3 sequence (P30575 whole entry): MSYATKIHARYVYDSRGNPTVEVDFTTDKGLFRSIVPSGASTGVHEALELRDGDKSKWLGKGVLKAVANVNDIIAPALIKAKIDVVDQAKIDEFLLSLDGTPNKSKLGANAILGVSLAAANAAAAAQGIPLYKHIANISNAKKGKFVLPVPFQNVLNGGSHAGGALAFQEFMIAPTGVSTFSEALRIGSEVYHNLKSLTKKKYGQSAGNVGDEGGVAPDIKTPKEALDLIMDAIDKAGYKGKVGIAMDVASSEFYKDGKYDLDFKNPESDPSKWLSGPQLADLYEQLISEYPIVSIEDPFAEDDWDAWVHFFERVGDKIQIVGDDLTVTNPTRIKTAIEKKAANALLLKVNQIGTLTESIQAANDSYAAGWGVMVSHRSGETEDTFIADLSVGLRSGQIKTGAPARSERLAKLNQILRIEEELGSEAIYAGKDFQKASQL
T1 sequence (P17182 whole entry): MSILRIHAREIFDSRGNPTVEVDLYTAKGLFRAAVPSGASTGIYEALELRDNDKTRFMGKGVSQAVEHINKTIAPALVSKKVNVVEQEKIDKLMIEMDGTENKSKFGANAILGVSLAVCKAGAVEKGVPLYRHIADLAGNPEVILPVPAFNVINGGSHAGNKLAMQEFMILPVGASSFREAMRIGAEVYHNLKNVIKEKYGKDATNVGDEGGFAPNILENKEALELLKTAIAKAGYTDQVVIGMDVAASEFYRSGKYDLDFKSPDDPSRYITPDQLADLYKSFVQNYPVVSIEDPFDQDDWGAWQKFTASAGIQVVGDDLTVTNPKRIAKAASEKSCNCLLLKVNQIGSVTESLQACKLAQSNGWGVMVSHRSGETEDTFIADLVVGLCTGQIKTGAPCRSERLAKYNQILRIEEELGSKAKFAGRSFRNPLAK
T2 sequence (P06733 whole entry): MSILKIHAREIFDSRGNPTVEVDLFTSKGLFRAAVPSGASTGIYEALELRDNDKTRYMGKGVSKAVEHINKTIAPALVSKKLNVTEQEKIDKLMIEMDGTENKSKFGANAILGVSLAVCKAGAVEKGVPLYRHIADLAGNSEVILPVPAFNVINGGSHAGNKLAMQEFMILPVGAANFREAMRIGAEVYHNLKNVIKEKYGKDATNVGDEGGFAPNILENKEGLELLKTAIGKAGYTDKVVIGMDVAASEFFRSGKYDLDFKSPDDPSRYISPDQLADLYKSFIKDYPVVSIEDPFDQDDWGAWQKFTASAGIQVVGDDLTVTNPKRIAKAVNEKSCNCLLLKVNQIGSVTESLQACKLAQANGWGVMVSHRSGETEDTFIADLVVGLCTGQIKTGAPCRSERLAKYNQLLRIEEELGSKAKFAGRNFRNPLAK

B1: CaS1 scFv: anti-CaENO1 scFv monoclonal antibody from chicken phage library; light chain SEQ ID NO:11, heavy chain SEQ ID NO:12 (antibody, V domains shown)
VH: TVTLDESGGGLQTPRGALSLVCKASGFTFIDYGMQWVRQAPGKGLEWVAGIGSSGSSTNYGAAVKGRATISRDDGQSTVRLQLNNLRAEDTGTYYCAKSAGGYCVNGAGCNGGSIDAWGHGTEVIVSS
VL: ALTQPSSVSANLGGTVKITCSGGSGSYGWYQQKSPGSAPVTVIYSNNQRPSNIPSRFSGSPSGSTGTLTITGVQADDEAVYFCGSRDSSYVGVFGAGTTLTVL
modifications: scFv linker; amino acid sequence comprised in a heavy chain of an anti-CaENO1 scFv monoclonal antibody (CaS1); amino acid sequence comprised in a light chain of an anti-CaENO1 scFv monoclonal antibody (CaS1)
Regarding B1, the “Binding to purified mENO1 (Western blot)” value with mENO1 was “very little; also recorded: weak cross reactivity”. Further, in the assay with hENO1, the “Binding to purified hENO1 (Western blot)” value is listed as “very little; also recorded: weak cross reactivity”. In addition, the Hyphal formation result in the assay with C. albicans [1] was “very little or none were observed”. Also, the “Fibrinolytic activity of C. albicans with plasminogen” value in assay [2] (C. albicans pre-incubated with 10 ug or 100 ug, then 10 ug plasminogen) is recorded as “significantly inhibited”. Besides, in assay [2] (C. albicans+CaS1 scFv without plasminogen), the “Fibrinolysis activity in the absence of plasminogen” value was “no fibrinolysis activity”. The “Binding of CaENO1 to plasminogen” value in assay [2] is given as “significantly reduced”; in assay [2] (listed as CaS1) it was “significantly inhibited”. Also, the survival rate in the assay with C. albicans [3] (10 μg pre-incubated with 1×10^6 cells of C. albicans, tail-vein) stood at 40%; with C. albicans [3] (100 μg mixed with 1×10^6 cells of C. albicans, 10 days), 80%. In addition, the “Protection against lethal challenge of C. albicans in mice” value in the assay with C. albicans [3] is “partial protect activity; also recorded: significant protective activity”; in the assay on C. albicans [3] (listed as CaS1 antibody), “prolonged the survival time”.
